Data on three molecules can be found in US20240117030A1 (Pfizer, published 2024).

Common to all, as to assay: cell-based or functional assay
Assay [1] concerns the target T1, recombinant human IL-4 (human, UniProt P05112 25-153).
T1 sequence (looked up): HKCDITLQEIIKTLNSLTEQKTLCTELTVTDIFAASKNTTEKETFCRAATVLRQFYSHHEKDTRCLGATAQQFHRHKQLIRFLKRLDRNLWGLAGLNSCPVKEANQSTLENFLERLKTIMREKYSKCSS

In assay [2] the target is recombinant human IL-13 (human, UniProt P35225 35-146).
Assay [3] addresses T2, IL-33 mm2 (human, UniProt O95760 112-270, limits assumed).
T2 sequence (looked up): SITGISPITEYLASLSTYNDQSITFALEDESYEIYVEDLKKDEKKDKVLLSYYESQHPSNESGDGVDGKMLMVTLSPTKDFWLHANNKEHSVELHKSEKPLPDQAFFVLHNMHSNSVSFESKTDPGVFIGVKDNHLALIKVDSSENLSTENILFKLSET

Assay [4] addresses T1, recombinant human IL-4. This is another data set of the same source.
In assay [5] the target is T1, recombinant human IL-4. The source holds these as a separate data set.

Sequence of recombinant human IL-13 (P35225 35-146 limits assumed): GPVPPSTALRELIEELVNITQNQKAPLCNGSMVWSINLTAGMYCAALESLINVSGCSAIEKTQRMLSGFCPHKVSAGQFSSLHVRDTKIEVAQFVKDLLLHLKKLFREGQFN

B1: IL13433-0607 (other)
heavy: EVQLVESGGGLVQPGGSLRLSCAASGFTFSSYAMSWVRQAPGKGLEWVASISTGDTTYYPDSVKGRFTISRDNAKNSLYLQMNSLRAEDTAVYYCARNEGYYFGLTQWGRGTLVTVSSASTKGPSVFPKAPSSKSTSGGTAALGCLVKDYFPEPVTVSWNSGALTSGVHTFPAVLQSSGLYSLSSSVTVPSSSLGTQTYICNVNHKPSNTKVDKKVEPKSCDKTHTCPPCPAPEAAGAPSVFLFPPKPKDTLMISRTPEVTCVVVDVSHEDPEVKFNWYVDGVEVHNAKTKPREEQYNSTYRVVSVLTVLHQDWLNGKEYKCKVSNKALPAPIEKTISKAKGQPREPQVCTLPPSREEMTKNQVSLWCLVKGFYPSDIAVEWESNGQPENNYKTTPPVLDSDGSFFLYSKLTVDKSRWQQGNVFSCSVLHEALHSHYTQKSLSLSPGK
chain 1: DIQMTQSPSSLSASVGDRVTITCRASQPISKHLDWYQQKPGKAPKLLIYFTNNLQTGVPSRFSGSGSGTDFTLTISSLQPEDFATYYCFQYNQGWTFGGGTKVEIKRTVAAPSVFIFPPSDEQLKSGTASVVCLLNNFYPREAKVQWKVDNALQSGNSQESVTEQDSKDSTYSLSSTLTLSKADYEKHKVYACEVTHQGLSSPVTKSFNRGECGGGGSEVTLRESGPALVKPTQTLTLTCTFSGFSLSNFGEGLSWIRQPPGKGLEWLAHIYWDDDKRYSTSLKTRLTISKDTSRNQVVLTMTNMDPVDTATYYCARRETVFYWYFDVWGQGTTVTVSSASTKGPSVFPEAPSSKSTSGGTAALGCLVKDYFPEPVTVSWNSGALTSGVHTFPAVLQSSGLYSLGSVVTVPSSSLGTQTYICNVNHKPSNTKVDKKVEPKSCDKTHTCPPCPAPEAAGAPSVFLFPPKPKDTLMISRTPEVTCVVVDVSHEDPEVKFNWYVDGVEVHNAKTKPREEQYNSTYRVVSVLTVLHQDWLNGKEYKCKVSNKALPAPIEKTISKAKGQPREPQVYTLPPCREEMTKNQVSLSCAVKGFYPSDIAVEWESNGQPENNYKTTPPVLDSDGSFFLVSKLTVDKSRWQQGNVFSCSVLHEALHSHYTQKSLSLSPGK
light 1: DIQMTQSPSSLSASVGDRVTITCRASESVDHFGWSLVHWYQQKPGKAPKLLIYRADSLETGVPSRFSGSGSGTDFTLTISSLQPEDFATYYCQQSNEDPWTFGGGTKVEIKRTVAAPSVFIFPPSDEQLKSGTASVSCLLNNFYPREAKVQWKVDNALQSGNSQESVTEQDSKDSTYSLDSTLTLSKADYEKHKVYACEVTHQGLSSPVTKSFNRGEC
light 2: DIQMTQSPSSLSASVGDRVTITCRASQSVDEEGDSYMNWYQQKPGKAPKLLIYAASNLESGVPSRFSGSGSGTDFTLTISSLQPEDFATYYCQQSHKDPPTFGGGTKVEIKRTVAAPSVFIFPPSDEQLKSGTASVSCLLNNFYPREAKVQWKVDNALQSGNSQESVTEQDSKDSTYSLKSTLTLSKADYEKHKVYACEVTHQGLSSPVTKSFNRGEC
chain 2: EVQLVESGGGLVQPGGSLRLSCAASGFTFSSYWMYWVRQAPGKGLEWVAAITPNAGEDYYPESVKGRFTISRDNAKNSLYLQMNSLRAEDTAVYYCARGHYYYTSYSLGYWGQGTLVTVSSASTKGPSVFPLAPSSKSTSGGTAALGCLVKDYFPEPVTVSWNSGALTSGVHTFPAVLQSSGLYSLSSVVTVPSSSLGTQTYICNVNHKPSNTKVDKKVEPKSC
In the case of B1, in assay [1], the “IL-4 Induced CD23 Expression, potency of cytokine neutralization” value stood at 66.9 pM. Further, the “IL-13 Induced CD23 Expression, potency of cytokine neutralization” value in assay [2] came out at 20.3 pM. Moreover, in assay [3], the “IL-33 mm2 Cys Activation of SEAP Reporter Cells, potency of cytokine neutralization” value came to 182 pM.

B2: IL4-0002 (antibody, human IgG1, kappa)
heavy: EVTLRESGPALVKPTQTLTLTCTFSGFSLSNFGEGLSWIRQPPGKGLEWLAHIYWDDDKRYNPSLKSRLTISKDTSRNQVVLTMTNMDPVDTATYYCARRETVFYWYFDVWGQGTTVTVSSASTKGPSVFPLAPSSKSTSGGTAALGCLVKDYFPEPVTVSWNSGALTSGVHTFPAVLQSSGLYSLSSVVTVPSSSLGTQTYICNVNHKPSNTKVDKKVEPKSCDKTHTCPPCPAPEAAGAPSVFLFPPKPKDTLMISRTPEVTCVVVDVSHEDPEVKFNWYVDGVEVHNAKTKPREEQYNSTYRVVSVLTVLHQDWLNGKEYKCKVSNKALPAPIEKTISKAKGQPREPQVYTLPPSREEMTKNQVSLTCLVKGFYPSDIAVEWESNGQPENNYKTTPPVLDSDGSFFLYSKLTVDKSRWQQGNVFSCSVMHEALHNHYTQKSLSLSPGK
light: DIQMTQSPSSLSASVGDRVTITCKASQSVDEDGDSYMNWYQQKPGKAPKLLIYAASNLESGVPSRFSGSGSGTDFTLTISSLQPEDFATYYCQQSNEDPPTFGGGTKVEIKRTVAAPSVFIFPPSDEQLKSGTASVVCLLNNFYPREAKVQWKVDNALQSGNSQESVTEQDSKDSTYSLSSTLTLSKADYEKHKVYACEVTHQGLSSPVTKSFNRGEC
Turning to B2, the “IC50 (median), IL-4 induced CD23 expression on human monocytes” value in assay [4] worked out at 2.09 pM. The “IL-4 induced CD23 upregulation (IC50), parental IgG” value in assay [5] worked out at 2.06 pM.

B3: IL4-1040 (antibody, human IgG1, kappa, V domains shown)
VH: EVTLRESGPALVKPTQTLTLTCTFSGFSLSNFGEGLSWIRQPPGKGLEWLAHIYWDDDKRYNPSLKSRLTISKDTSRNQVVLTMTNMDPVDTATYYCARRETVFYWYFDVWGQGTTVTVSS
VL: DIQMTQSPSSLSASVGDRVTITCRASQSVDEEGDSYMNWYQQKPGKAPKLLIYAASNLESGVPSRFSGSGSGTDFTLTISSLQPEDFATYYCQQSNKDPPTFGGGTKVEIKR
With B3, the “IC50 (median), IL-4 induced CD23 expression on human monocytes” value in assay [4] is 3.23 pM. Moreover, in assay [5], the “IL-4 induced CD23 upregulation (IC50), parental IgG” value was 3.23 pM.
